Data: patent publication US20180291088A1
Where “and” joins values, the source holds several entries; their conditions need not be identical. Equal values may be shown once.

B1: EVB167 monoclonal antibody (antibody, V domains shown)
VH: AVQLVQSGAEVKKPGTTVKISCKVSGYTFIQEYIHWVQQAPGKGLVWMGLGDPENNETLYSEDFQGRVTMTADTSSDTAYLELRSLTFADTAVYFCTSRKSWWGQGTLVTVAS
VL: ELVLTQSPGTLSLSPGESATLSCRASQSLSSDSVSWFQQKPGQAPRLVIHGTSKRATGIPDRFSGGGSGTDFTLTIARLEPEDFAVYYCQRSGYGMSVTWTFGQGTTVEIK
B2: EVB165 monoclonal antibody (antibody, V domains shown)
VH: DVQLVESGGGVVQPGGSLKLACVVSGFRFSDYWMSWVRQAPGKGLEWVANIKQDGSGKYYVDSVKGRFTVSRDNAKNSLYLHMTSLGAEDTAVYFCARAAPTGSYTNILVDNVHFDYWGQGILVAVSS
VL: GIQLTQSPGSLSASVGDSVTITCRPNQNIATYINWYQQTPGKAPKLLIYAASILQSGVPSRFSGAGSGTHFTLIISTLQPEDSATYYCQQSYSTPWTFGQGTKVEIK
B3: EVB100 monoclonal antibody (antibody, V domains shown)
VH: QVQLQESGPGLVKPSDTLSLTCTVSGGSLSSFYWSWIRQPPGKGLEWIGYIYYSGSPNYSPSLESRVTMSVDTTRNQISLKLDSVTAADTAVYYCVRASRSYYWGSYRPTAFDSWGQGTLVTVSS
VL: SYELTQPLSVSVSPGQTAIFTCSGDNLGDKYVCWFQQRPGQSPMLLIYQDNKRPSGIPERFSGSNSGNTATLTISGTQSTDEADYYCQTWDSTVVFGGGTKLTVL
B4: EVB166 monoclonal antibody (antibody, V domains shown)
VH: QVQLVQSGAEVKKPGSSVKVSCKTSGGTLSNYAISWVRQAPGQGLEWMGGTIPTLGMSTYAPNFQGRVAITADKSTSTAYMELSSLRSDDTAVYYCATMGSADTSFYFYMDVWGKGTTVTVSS
VL: EIVLTQSPGTLSLSPGERATLSCRASQSVSSSYLAWYQQKPGQAPRLLIYGTSSRATGIPDRFSGSASGTDFTLTISRLEPEDFAVYYCQQYAYSPFTFGPGTKVDIK
B5: EVB114 monoclonal antibody (antibody, V domains shown)
VH: EVQLVESGGGLIQPGGSLRLSCAASGFALRMYDMHWVRQTIDKRLEWVSAVGPSGDTYYADSVKGRFAVSRENAKNSLSLQMNSLTAGDTAIYYCVRSDRGVAGLFDSWGQGILVTVSS
VL: DIQMTQSPSSLSASVGDRITITCRASQAFDNYVAWYQQRPGKVPKLLISAASALHAGVPSRFSGSGSGTHFTLTISSLQPEDVATYYCQNYNSAPLTFGGGTKVEIK

Tests used:
[1] = molecular target: EBOV GP on pseudotyped lentivirus particles (EBOV , Mayinga) (UniProt Q05320); experiment: cell-based or functional assay
[2] = molecular target: EBOV GP , coated on ELISA plates (EBOV , Mayinga) (UniProt Q05320)
[3] = molecular target: EBOV GP on pseudotyped lentivirus particles (EBOV , Mayinga), Q05320; experiment: cell-based or functional assay
[4] = molecular target: EBOV GP , coated on ELISA plates (EBOV , Mayinga) (UniProt Q05320); remark: listed apart in the source

Row | Molecule | maximum inhibition of input pseudovirus [3] | EC50 [4] | other results
1 | 13C6 monoclonal antibody |  |  | neutralization of pseudovirus at 10 µg/mL [1]: < 20%
2 | KZ52 monoclonal antibody |  |  | maximum inhibition of input pseudovirus [1]: 80% and 90%
3 | B1 |  |  | Abs 450 [2]: 3.37 A450 and 2.97 A450
4 | B2 | 100% | > 1 µg/mL | Abs 450 [2]: 3.17 A450 and 1.72 A450
5 | B3 | 100% | 0.26 µg/mL | 
6 | B4 | 100% |  | 
7 | B5 | 100% | 0.07 µg/mL | maximal binding, higher than the other mAbs [4]: 100%
